Laboratory results published in US20250296960A1, “PEPTIDE COMPOSITIONS AND METHODS OF USE THEREOF” (priority 2022, published 2025).
Numbered stars: 1 amine (or outer) side, 2 acyl side, 3 side chain; on linkers, the order of the positions; unused ones are H or OH. Square brackets hold non-standard residues; d marks the D form. Side chains are listed from the residue outwards. Ends that are not written are not given here. Peptide text beside a SMILES is read from it. * marks the point of attachment. C18 = C18 fatty acid (C16-C22 fatty acids conjugated via γGlu/8-amino-3,6-dioxaoctanoic acid spacers); X1 = O=C(O)CCCCCCCCCCCCCCCCC(=O)N[C@@H](CCC(=O)NCCOCCOCC(=O)NCCOCCOCC(=O)NCCN1C(=O)CC(*)C1=O)C(=O)O; methoxinine = methoxinine (m*), COCC[C@H](N[*:1])C(=O)[*:2]; Biotin = O=C1N[C@H]2[C@H](CS[C@H]2CCCCC(=O)*)N1; γGlu = O=C(O)[C@H](CCC(=O)[*:2])N[*:1]; AEEA = NCCOCCOCC(=O)O; Aib = CC(C)(N)C(=O)O

Key:
human GIPR = biological target: T1, human GIPR (Homo sapiens, UniProt P48546); test: cAMP assay (HitHunter cAMP) in GIPR-expressing CHO-K1 cells (GIPR+ cells); type: cell-based
T1 construct: host or cells: CHO-K1
T1 sequence (P48546 22-466): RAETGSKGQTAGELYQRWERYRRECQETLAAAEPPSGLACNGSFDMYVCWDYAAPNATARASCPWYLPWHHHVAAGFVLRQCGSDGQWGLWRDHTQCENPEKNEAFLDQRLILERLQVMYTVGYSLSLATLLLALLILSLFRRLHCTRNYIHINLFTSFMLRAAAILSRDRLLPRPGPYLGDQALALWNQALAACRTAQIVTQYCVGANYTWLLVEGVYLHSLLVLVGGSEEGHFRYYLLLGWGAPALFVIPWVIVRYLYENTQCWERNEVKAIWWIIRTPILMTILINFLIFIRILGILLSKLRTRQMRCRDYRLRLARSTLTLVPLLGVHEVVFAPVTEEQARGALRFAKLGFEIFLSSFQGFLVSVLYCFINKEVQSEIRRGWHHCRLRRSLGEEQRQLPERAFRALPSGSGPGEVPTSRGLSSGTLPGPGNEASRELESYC
Summary of the method: (§1)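 CHO-K1 cells expressing each receptor were plated overnight, then treated with peptide in cAMP assay buffer for 30 min at 37 °C. cAMP was detected by antibody plus detection solution (1 h) and Solution A (3 h), both at room temperature in the dark. Luminescence was the read-out.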

human GLP-1R = biological target: T2, human GLP-1R (Homo sapiens, UniProt P43220); test: cAMP assay (HitHunter cAMP) in GLP-1R-expressing CHO-K1 cells (GLP-1R+ cells); type: cell-based
T2 construct: host or cells: CHO-K1
Summary of the method: as §1

human GCGR = biological target: T3, human GCGR (Homo sapiens, UniProt P47871); test: cAMP assay (HitHunter cAMP) in GCGR-expressing CHO-K1 cells (GCGR+ cells); type: cell-based
T3 construct: host or cells: CHO-K1
Summary of the method: as §1

[1] = In vivo efficacy in mAMLN (NASH) mice, 2 weeks
[2] = Body weight loss in normal C57BL/6 mice, subcutaneous dosing; type: in vivo; conditions: for Weight loss (%): normal mice, after 48 or 72 hours
[3] = biological target: human GLP-1 receptor (GLP-1R), expressed on CHO-K1 cells (human, UniProt P43220 24-463); test: cell-based or functional assay
[4] = biological target: human glucagon receptor (GCGR), expressed on CHO-K1 cells (human, UniProt P47871 26-477); test: cell-based or functional assay
[5] = biological target: T4, human glucose-dependent insulinotropic polypeptide receptor (GIPR), expressed on CHO-K1 cells (human, UniProt P48546 22-466); test: cell-based or functional assay
T4 sequence (looked up): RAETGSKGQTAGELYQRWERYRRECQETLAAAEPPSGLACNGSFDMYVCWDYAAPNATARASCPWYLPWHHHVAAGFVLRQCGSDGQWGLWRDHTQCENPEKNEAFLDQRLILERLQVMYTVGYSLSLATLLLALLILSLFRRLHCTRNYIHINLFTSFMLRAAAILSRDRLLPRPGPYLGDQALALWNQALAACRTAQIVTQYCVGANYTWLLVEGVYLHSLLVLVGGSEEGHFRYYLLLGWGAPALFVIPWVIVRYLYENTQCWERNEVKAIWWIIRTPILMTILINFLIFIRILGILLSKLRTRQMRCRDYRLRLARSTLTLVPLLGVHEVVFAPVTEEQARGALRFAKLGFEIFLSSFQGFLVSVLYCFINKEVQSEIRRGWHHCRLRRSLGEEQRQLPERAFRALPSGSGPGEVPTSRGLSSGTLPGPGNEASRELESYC

[6] = Table 19, normalised to activity at GLP-1R
[7] = Table 24, ratio of EC50 of native ligand over peptide

T2 sequence (P43220 24-463): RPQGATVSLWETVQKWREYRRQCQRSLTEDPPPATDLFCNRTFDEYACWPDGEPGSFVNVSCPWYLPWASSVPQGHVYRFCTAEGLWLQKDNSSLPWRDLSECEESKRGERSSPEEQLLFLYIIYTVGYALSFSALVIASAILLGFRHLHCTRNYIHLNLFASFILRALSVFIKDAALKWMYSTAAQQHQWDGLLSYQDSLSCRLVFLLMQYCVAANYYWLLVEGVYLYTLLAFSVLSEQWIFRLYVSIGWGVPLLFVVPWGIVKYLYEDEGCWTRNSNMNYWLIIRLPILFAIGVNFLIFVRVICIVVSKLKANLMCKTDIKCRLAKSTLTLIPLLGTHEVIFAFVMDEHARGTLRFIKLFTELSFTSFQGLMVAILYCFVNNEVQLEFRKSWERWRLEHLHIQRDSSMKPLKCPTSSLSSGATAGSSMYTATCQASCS
T3 sequence (P47871 26-477): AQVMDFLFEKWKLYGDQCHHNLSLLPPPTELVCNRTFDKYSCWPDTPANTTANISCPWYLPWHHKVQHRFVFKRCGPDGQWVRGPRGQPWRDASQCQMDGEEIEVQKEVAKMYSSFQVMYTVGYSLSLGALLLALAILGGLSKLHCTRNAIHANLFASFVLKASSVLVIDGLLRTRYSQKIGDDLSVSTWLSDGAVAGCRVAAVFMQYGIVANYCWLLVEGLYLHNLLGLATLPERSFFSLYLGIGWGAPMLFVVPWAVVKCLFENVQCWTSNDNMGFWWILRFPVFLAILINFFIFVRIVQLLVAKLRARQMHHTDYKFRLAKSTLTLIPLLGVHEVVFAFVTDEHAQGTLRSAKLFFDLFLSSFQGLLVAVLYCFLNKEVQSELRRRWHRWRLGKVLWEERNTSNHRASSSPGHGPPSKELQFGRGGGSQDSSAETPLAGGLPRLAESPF
Sequence of human glucagon receptor (GCGR), expressed on CHO-K1 cells (P47871 26-477): as above

Molecule: CC[C@H](C)[C@H](NC(=O)[C@H](CC(C)C)NC(=O)[C@H](Cc1c[nH]c2ccccc12)NC(=O)[C@H](CCC(N)=O)NC(=O)[C@@H](NC(=O)[C@H](Cc1ccccc1)NC(=O)[C@H](CC(=O)O)NC(=O)[C@H](CCCNC(=N)N)NC(=O)[C@H](C)NC(=O)[C@H](CCSC)NC(=O)[C@H](CCSC)NC(=O)[C@H](Cc1ccc(O)cc1)NC(=O)[C@H](CC(=O)O)NC(=O)[C@H](CC(C)C)NC(=O)[C@H](Cc1ccc(O)cc1)NC(=O)[C@H](CCCCN)NC(=O)[C@H](CO)NC(=O)[C@H](Cc1ccc(O)cc1)NC(=O)[C@H](CC(=O)O)NC(=O)[C@H](CO)NC(=O)[C@@H](NC(=O)[C@H](Cc1ccccc1)NC(=O)[C@@H](NC(=O)CNC(=O)[C@H](CCC(N)=O)NC(=O)C(C)(C)NC(=O)[C@@H](N)Cc1ccc(O)cc1)[C@@H](C)O)[C@@H](C)O)C(C)C)C(=O)N[C@@H](CCC(=O)O)C(=O)NCC(=O)NCC(=O)N1CCC[C@H]1C(=O)N[C@@H](CO)C(=O)N[C@@H](CO)C(=O)NCC(=O)N[C@@H](C)C(=O)N1CCC[C@H]1C(=O)N1CCC[C@H]1C(=O)N1CCC[C@H]1C(=O)N[C@@H](CO)C(=O)N[C@@H](CSC1CC(=O)N(CCNC(=O)COCCOCCNC(=O)COCCOCCNC(=O)CC[C@H](NC(=O)CCCCCCCCCCCCCCCCC(=O)O)C(=O)O)C1=O)C(N)=O (some centres unmarked) [5-1A] (H-Y[Aib]QGTFTSDYSKYLDYMMARDFVQWLIEGGPSSGAPPPSC(X1)-NH2; N-terminus assumed)
- Activity relative to STD peptide (%), GIPR (human GIPR; Table 18): 1%
- Activity relative to GLP-1 (%), GIPR (human GIPR; [6]): 1%
- Relative % to native ligand, GIPR (human GIPR; [7]): 1%
- Ratio vs. GLP-1R, GIPR (human GIPR; Table 25): 1
- Relative % to non-lipidated peptide, GIPR (human GIPR; Table 26): 11%
- Activity relative to STD peptide (%), GLP-1R (human GLP-1R; Table 18): 187%
- Activity relative to GLP-1 (%), GLP-1R (human GLP-1R; [6]): 100%
- Relative % to native ligand, GLP-1R (human GLP-1R; [7]): 187%
- Ratio vs. GLP-1R, GLP-1R (human GLP-1R; Table 25): 100
- Relative % to non-lipidated peptide, GLP-1R (human GLP-1R; Table 26): 159%
- Activity relative to STD peptide (%), GCGR (human GCGR; Table 18): 24%
- Activity relative to GLP-1 (%), GCGR (human GCGR; [6]): 13%
- Relative % to native ligand, GCGR (human GCGR; [7]): 24%
- Ratio vs. GLP-1R, GCGR (human GCGR; Table 25): 13
- Relative % to non-lipidated peptide, GCGR (human GCGR; Table 26): 0%
- blood glucose, in words ([1]; 20 nmol/kg s.c. Q2D, 2 weeks): reduce blood glucose
- body weight, in words ([1]; 20 nmol/kg s.c. Q2D, 2 weeks): reduce body weight
- hepatic triglyceride content, in words ([1]; end of treatment): reduce hepatic triglyceride content
- liver weight, in words ([1]; end of treatment): reduce liver weight
- mRNA levels of TGF-β1 (inflammation marker) and ACTA2 (fibrosis marker), in words ([1]; end of treatment): reduce both TGF-β1 and ACTA2
- body weight loss effect, in words ([2]; Example 5, 20 nmol/kg s.c. QD, 4 days): Superior body weight loss effects
- Weight loss (%) ([2]; 10 nmol/kg QD): 20.0 ± 2.1%
- Weight loss (%) ([2]; 20 nmol/kg QD): 18.9 ± 2.0%

B1: SEQ ID NO. 89 (peptide)
peptide: Y[Aib]QGTFTSDYSK([AEEA-AEEA-γGlu-C18])LLDYMMQRDFVKWLLEGGPSSGAPPPS-NH2
modifications: not fully specified (residue 24); printed as YAibQGT FTSDY SK*LLD YMMQR DFVB*W LLEGG PSSGA PPPS
- Ratio vs. GLP-1R [3]: 100
- Relative % to native ligand [3]: 38%
- Ratio vs. GLP-1R [4]: 117
- Relative % to native ligand [4]: 45%
- Ratio vs. GLP-1R [5]: 399
- Relative % to native ligand [5]: 154%

Molecule: Y[Aib]QGTFTSDYSK([AEEA-AEEA-γGlu-C18])LLDY[methoxinine][methoxinine]QRDFVQWLLEGGPSSGAPPPS-NH2 [SEQ ID NO. 96]
- Ratio vs. GLP-1R [3]: 100
- Relative % to native ligand [3]: 181%
- Ratio vs. GLP-1R [4]: 10
- Relative % to native ligand [4]: 17%
- Ratio vs. GLP-1R [5]: 56
- Relative % to native ligand [5]: 102%

Molecule: Y[Aib]QGTFTSDYSK([AEEA-AEEA-γGlu-C18])YLDYMMQRDFVK(Biotin)WLLEGGPSSGAPPPS (ends and bridges not checked) [SEQ ID NO. 97]
- Ratio vs. GLP-1R [3]: 100
- Relative % to native ligand [3]: 106%
- Ratio vs. GLP-1R [4]: 28
- Relative % to native ligand [4]: 30%
- Ratio vs. GLP-1R [5]: 117
- Relative % to native ligand [5]: 123%

B2: SEQ ID NO. 88 (peptide)
peptide: Y[Aib]QGTFTSDYSK([AEEA-AEEA-γGlu-C18])LLDYMMQKDFVQWLLEGGPSSGAPPPS-NH2
modifications: not fully specified (residue 20); printed as YAibQGT FTSDY SK*LLD YMMQB* DFVQW LLEGG PSSGA PPPS
- Ratio vs. GLP-1R [3]: 100
- Relative % to native ligand [3]: 16%
- Ratio vs. GLP-1R [4]: 120
- Relative % to native ligand [4]: 20%
- Ratio vs. GLP-1R [5]: 432
- Relative % to native ligand [5]: 71%

Molecule: Y[Aib]QGTFTSDYSK([AEEA-AEEA-γGlu-C18])LLDYMMQRDFVQWLLEGGPSSGAPPPSK(Biotin)-NH2 [SEQ ID NO. 90]
- Ratio vs. GLP-1R [3]: 100
- Relative % to native ligand [3]: 50%
- Ratio vs. GLP-1R [4]: 39
- Relative % to native ligand [4]: 19%
- Ratio vs. GLP-1R [5]: 311
- Relative % to native ligand [5]: 154%

Molecule: Y[Aib]QGTFTSDYSK([AEEA-AEEA-γGlu-C18])LLDQQAQRDFVQWLLEGGPSSGAPPPS-NH2 [SEQ ID NO. 95]
- Ratio vs. GLP-1R [3]: 100
- Relative % to native ligand [3]: 1630%
- Ratio vs. GLP-1R [4]: 1
- Relative % to native ligand [4]: 14%
- Ratio vs. GLP-1R [5]: 19
- Relative % to native ligand [5]: 316%

Molecule: Y[Aib]QGTFTSDYSK([AEEA-AEEA-γGlu-C18])LLDYMMQ[Aib]DFVQWLLEGGPSSGAPPPS-NH2 [SEQ ID NO. 84]
- Ratio vs. GLP-1R [3]: 100
- Relative % to native ligand [3]: 71%
- Ratio vs. GLP-1R [4]: 28
- Relative % to native ligand [4]: 20%
- Ratio vs. GLP-1R [5]: 470
- Relative % to native ligand [5]: 335%

Molecule: Y[Aib]QGTFTSDYSK([AEEA-AEEA-γGlu-C18])LLDYMMQ[Aib]DFVQYLLEGGPSSGAPPPSK-NH2 (not fully specified (residue 40)) [SEQ ID NO. 92]
- Ratio vs. GLP-1R [3]: 100
- Relative % to native ligand [3]: 8%
- Ratio vs. GLP-1R [4]: 243
- Relative % to native ligand [4]: 19%
- Ratio vs. GLP-1R [5]: 1530
- Relative % to native ligand [5]: 120%

B3: SEQ ID NO. 86 (peptide)
peptide: Y[Aib]QGTFTSDYSK([AEEA-AEEA-γGlu-C18])LLDKMMQRDFVQWLLEGGPSSGAPPPS-NH2
modifications: not fully specified (residue 16); printed as YAibQGT FTSDY SK*LLD B*MMQR DFVQW LLEGG PSSGA PPPS
- Ratio vs. GLP-1R [3]: 100
- Relative % to native ligand [3]: 90%
- Ratio vs. GLP-1R [4]: 157
- Relative % to native ligand [4]: 142%
- Ratio vs. GLP-1R [5]: 639
- Relative % to native ligand [5]: 575%

Molecule: Y[Aib]QGTFTSDYSK([AEEA-AEEA-γGlu-C18])LLDYMMQ[Aib]DFVQYLLEGGPSSGAPPPS-NH2 [SEQ ID NO. 85]
- Ratio vs. GLP-1R [3]: 100
- Relative % to native ligand [3]: 12%
- Ratio vs. GLP-1R [4]: 305
- Relative % to native ligand [4]: 38%
- Ratio vs. GLP-1R [5]: 1150
- Relative % to native ligand [5]: 143%
